Assay results published in US20260167702A1, “HUMAN BROADLY CRO[…] […] METHODS OF USE THEREOF” (Dana-Farber Cancer Institute, Inc., priority 2021, published 2026).
“And” between values parts separate entries of the source, which are not always exact repeats. Equal values may be shown once. “Also recorded” adds a separate entry of the source. Read-outs that look alike come from different tables or passages of the source.

Columns and labels:
in_vivo [1] = conditions: cited from earlier work
in_vivo [2] = conditions: oseltamivir combined with up to 8,400 mg antibody; cited from earlier work
cell_based [3] = system: T1, cell_based; parameters: species or system influenza A virus
T1 construct: other: purified scFvFc antibodies; transfected 293T cells; The full length HA genes of ... were cloned into pcDNA3.1 vector and transfected into 293T/17 cells to produce cell surface expressed HA

in_vivo [4] = system: in_vivo; parameters: species or system BALB/c mice
binding [5] = system: binding; parameters: species or system influenza A virus
cell_based [6] = target: cell_based (Influenza A virus, UniProt C3W5S1)
biochemical_functional = system: biochemical_functional; parameters: species or system influenza A virus; conditions: pH 8
cell_based [7] = system: cell_based; parameters: species or system influenza A virus
binding [8] = system: binding; parameters: species or system influenza A virus; remark: listed apart in the source
in_vivo [9] = system: in_vivo; parameters: species or system BALB/c mice; remark: listed apart in the source
binding [10] = target: binding (Influenza A virus, UniProt C3W5S1)
cell_based [11] = target: cell_based (Influenza A virus, UniProt P03452)
in_vivo [12] = system: in_vivo; parameters: species or system BALB/c mice; remark: listed apart in the source
binding [13] = system: binding; parameters: species or system influenza A virus; remark: listed apart in the source
cell_based [14] = system: cell_based; parameters: species or system influenza A virus; remark: listed apart in the source
in_vivo [15] = assay: Influenza ADE study in mice, lung virus load by plaque assay; parameters: species or system BALB/c mice
Excerpt: Graphs of lung virus load vs dose in 3I14 (left) and 3I14 LALA (right) in an influenza antibody-dependent enhancement study in mice.
3I14 LALA avoids antibody-dependent enhancement (ADE).

binding [16] = target: binding; parameters: species or system influenza A virus; conditions: read-out: mean Kd H5-IN05
cell_based [17] = system: cell_based
binding [18] = system: binding; parameters: species or system influenza A virus; remark: listed apart in the source
in_vivo [19] = system: in_vivo; parameters: species or system BALB/c mice; remark: listed apart in the source
binding [20] = system: binding; parameters: species or system influenza A virus; remark: listed apart in the source
binding [21] = conditions: read-out: mean Kd H9-HK99
cell_based [22] = system: cell_based; remark: listed apart in the source
cell_based [23] = system: cell_based; parameters: species or system influenza A virus; remark: listed apart in the source
binding [24] = system: binding; parameters: species or system influenza A virus; remark: listed apart in the source

cell_based (Influenza A virus, UniProt P03452), sequence (P03452 344-565): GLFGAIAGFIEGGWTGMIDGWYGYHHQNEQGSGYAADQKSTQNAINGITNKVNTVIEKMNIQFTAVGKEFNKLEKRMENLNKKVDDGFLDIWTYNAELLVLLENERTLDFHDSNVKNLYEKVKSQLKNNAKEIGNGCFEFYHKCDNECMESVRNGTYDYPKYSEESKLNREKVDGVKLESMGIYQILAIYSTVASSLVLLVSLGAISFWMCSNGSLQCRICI
cell_based (Influenza A virus, UniProt P03452), sequence (P03452 18-343): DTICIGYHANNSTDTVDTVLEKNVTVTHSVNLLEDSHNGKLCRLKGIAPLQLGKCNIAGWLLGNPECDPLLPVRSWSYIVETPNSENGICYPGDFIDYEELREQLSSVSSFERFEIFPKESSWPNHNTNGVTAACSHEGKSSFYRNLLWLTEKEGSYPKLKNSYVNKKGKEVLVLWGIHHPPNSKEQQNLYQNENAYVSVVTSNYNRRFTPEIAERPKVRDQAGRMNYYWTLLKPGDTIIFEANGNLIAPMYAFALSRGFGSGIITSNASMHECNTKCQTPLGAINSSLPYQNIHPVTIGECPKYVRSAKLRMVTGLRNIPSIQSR

B1: MHAA4549A: Genentech broadly neutralizing influenza A mAb (antibody, chains of the INN, looked up, V domains shown)
VH: EVQLVESGGGVVQPGKSLRLSCAASGLTFSSYAVHWVRQAPGKGLEWVTLISYDGANQYYADSVKGRFTISRDNSKNTVYLQMNSLRPEDTAVYYCAVPGPVFGIFPPWSYFDNWGQGILVTVSS
VL: EIVLTQSPATLSVSPGERATLSCRASQVISHNLAWYQQKPGQAPRLLIYGASTRASGIPARFSGSGSGTDYTLTITSLQSEDFAVYYCQHYSNWPPRLTFGGGTKVEIK
in_vivo [1]; 1200 mg, listed as MHAA4549A/Gedivumab
  viral load: increase in viral load
in_vivo [1]; 400 and 3600 mg
  viral loads: reduction in viral loads
in_vivo [2]
  O2 or ventilation support: required increase in O2 or ventilation support
  duration of viral shedding: increased duration of viral shedding
  fatality due to any cause: higher fatality percentage due to any cause

B2: 3I14: human broadly neutralizing anti-influenza A HA stem mAb from memory B cells; VH SEQ ID NO: 2, VL SEQ ID NO: 4 (antibody, V domains shown)
VH: QVQLLESGGGVVQPGRSLRLSCAASGFTFSNYGMHWVRQAPGKGLEWVAIISFDGSKKYYANSVKGRSTISRDNSKNTLSLQMNSLGPEDTALYYCAKLPSPYYFDSRFVWVAASAFHFWGQGILVTVSS
VL: NFMLTQPPSASGTPGQRVTISCSGSSSNIGGNTVHWFQQLPGTAPKLLIYTNSLRPSGVPDRFSGSKSGTSASLAISGLQSEDEADYYCAAWDDSLNGQVFGGGTKLTVL
cell_based [3]
  binding to cell surface-expressed HAs by flow cytometry: bound
in_vivo [4]
  protection against H5N1-VN04: 60%
  protection against H5N1-VN04, over doses: 20-60%
Binding [5]
  inhibition of binding of 39.29 and F10 to H5-VN04: inhibited; also recorded: partially inhibits
  inhibition of binding of anti-H5 head antibody 2A to H5-VN04: did not inhibit; also recorded: does not inhibit
cell_based [6]
  IC50 H1-CA09: 0.225 µg/mL
biochemical_functional
  prevention of trypsin cleavage of immature HA0: prevented cleavage of immature HA0
cell_based [7]
  IC50 H3-BR07 infectious virus: 0.3054 µg/mL
Binding [8]
  Koff H3-PE09: 3.99e-05 s⁻¹
  Kon H3-PE09: 152000 M⁻¹ s⁻¹
  binding to trimeric full-length H3 A/Perth/16/09: bound
in_vivo [9]
  protection against H3N2-BR07: 80%
  protection against H3N2-BR07, over doses: 60-80%
Binding [10]
  Koff H1-CA09: 4.87e-05 s⁻¹
  Kon H1-CA09: 174000 M⁻¹ s⁻¹
Binding [10]; read-out: Kd H1-CA09
  Kd: 0.279 nM
cell_based [11]
  IC50 H1-PR8: 0.413 µg/mL
in_vivo [12]
  body weight loss, H7N7-NL219 challenge: minimal body weight loss
  protection from death, H7N7-NL219 challenge: fully protected
Binding [13]
  affinity for H1 subtypes: high affinity
cell_based [14]
  HA1-HA2 dissociation after DTT treatment: prevented HA1-HA2 dissociation
  binding to dissociated HA2 mediated by DTT reduction: did not bind
  binding to uncleaved HA precursor (HA0) and mature forms (HA): binds to both uncleaved HA precursor (HA0)
cell_based [14]; pH 4.9
  inhibition of pH-dependent HA rearrangement: inhibits the pH-dependent HA rearrangement
in_vivo [15]; doses ≥5 mg/kg
  virus levels in the lungs at high doses: reduced virus levels
in_vivo [15]; intermediate low dose levels
  increase of viral titers in lung tissue, 3I14 compared to 3I14 LALA: ~2 fold
in_vivo [15]; intermediate low dose levels, IP 1 hour prior to intranasal challenge, Day 4
  virus levels in the lungs compared with controls: ~2 fold
Binding [16]
  Kd: 1.05 nM
cell_based [17]
  luciferase response in Jurkat reporter cells (ADCC), H5 targets: at a lower level than FI6v3, CR9114, 39.29 and F10
Binding [18]
  binding to HA1 subunit of H3 PE-09: did not bind
in_vivo [19]
  body weight loss, H7N9-AH13 challenge: minimal body weight loss
  protection from death, H7N9-AH13 challenge: fully protected
Binding [20]
  Koff H5-VN04: 0.000383 s⁻¹ and 0.000387 s⁻¹
  Kon H5-VN04: 375000 M⁻¹ s⁻¹ and 327000 M⁻¹ s⁻¹
Binding [21]
  Kd: 5.23 nM
cell_based [22]
  luciferase response in Jurkat reporter cells (ADCC), H3 targets: induced a significant luciferase response
cell_based [23]
  IC50 H5-VN04 pseudovirus: 0.08158 µg/mL

B3: 3I14 Fab: Fab of 3I14 used in the binding competition ELISA (antibody, V domains shown)
VH: QVQLLESGGGVVQPGRSLRLSCAASGFTFSNYGMHWVRQAPGKGLEWVAIISFDGSKKYYANSVKGRSTISRDNSKNTLSLQMNSLGPEDTALYYCAKLPSPYYFDSRFVWVAASAFHFWGQGILVTVSS
VL: NFMLTQPPSASGTPGQRVTISCSGSSSNIGGNTVHWFQQLPGTAPKLLIYTNSLRPSGVPDRFSGSKSGTSASLAISGLQSEDEADYYCAAWDDSLNGQVFGGGTKLTVL
Binding [24]
  competition with E730 (anti-HA1 head Ab) for binding to H3-BR07: did not compete
  competition with anti-stem Abs CR8020, CR9114, FI6(v3) and 39.29 for binding to H3-BR07: cross-competed; also recorded: strongly inhibits
